Experimental data from patent US20200199244A1 (published 2020).
Where a chain is given by its changes, count along the chain named. “And” between values parts separate entries of the source, which are not always exact repeats. Identical values can stand only once.

Tests used:
[1] = biological target: human CD40 on primary human cells (blood CD20+ B cells, tonsillar B cells, monocyte-derived dendritic cells) (human, UniProt P25942 21-277); experiment: flow cytometry on human whole blood, PE-streptavidin detection, gate on CD20+ B cells
[2] = biological target: T1, marmoset CD40 on blood lymphocytes (marmoset, UniProt Q3LRP1 21-274); experiment: flow cytometry on whole blood, PE-streptavidin detection, all lymphocytes by scatter
T1 construct: whole, on cells

[3] = biological target: T2, cynomolgus monkey CD40 on CD20+ B cells in blood (Macaca fascicularis (cynomolgus monkey), UniProt P25942 21-277 (human entry)); experiment: flow cytometry on whole blood, PE-streptavidin detection, gate on CD20+ B cells
T2 construct: also called cynoCD40
T2 chain: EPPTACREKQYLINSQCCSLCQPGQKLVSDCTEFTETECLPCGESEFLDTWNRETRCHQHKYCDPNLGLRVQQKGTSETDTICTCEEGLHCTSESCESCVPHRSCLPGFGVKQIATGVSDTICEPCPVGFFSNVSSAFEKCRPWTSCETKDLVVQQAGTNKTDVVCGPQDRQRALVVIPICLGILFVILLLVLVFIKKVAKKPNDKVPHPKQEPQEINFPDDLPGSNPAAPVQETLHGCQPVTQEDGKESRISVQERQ

[4] = biological target: T3, rhesus macaque CD40 on CD20+ B cells in blood (rhesus macaque, UniProt F6SNI1 21-278); experiment: as above
T3 construct: whole, on cells; also called rhesus CD40

[5] = biological target: T1, marmoset CD40 on blood lymphocytes; experiment: flow cytometry on whole blood, anti-PEG detection, all lymphocytes by scatter
[6] = biological target: T2, cynomolgus monkey CD40 on CD20+ B cells …; experiment: flow cytometry on whole blood, anti-PEG detection, gate on CD20+ B cells
[7] = biological target: T3, rhesus macaque CD40 on CD20+ B cells in …; experiment: as above
[8] = biological target: T4, human CD40 (H76R) Fc fusion (human, UniProt P25942 21-193); experiment: SPR ProteOn XPR36, CD40-Fc captured, dAb analyte
T4 construct: As m1 with H76R; also called hCD40-M1; not shown: human IgG1 Fc

[9] = biological target: T5, wild type human CD40 Fc fusion (human, UniProt P25942 21-193); experiment: SPR ProteOn XPR36, CD40-Fc captured, dAb analyte
T5 construct: also called wt-hCD40; not shown: human IgG1 Fc

[10] = biological target: T6, human CD40 (H76R, W109L, L121P) Fc fusion (human); experiment: SPR ProteOn XPR36;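 further: surface plasmon resonance with CD40-Fc fusions captured through their Fc on an anti-human IgG chip, sensorgrams reference-subtracted against surfaces lacking CD40-Fc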
T6 construct: As m1 with H76R, W109L and L121P; also called hCD40-M5; not shown: human IgG1 Fc
T6 chain: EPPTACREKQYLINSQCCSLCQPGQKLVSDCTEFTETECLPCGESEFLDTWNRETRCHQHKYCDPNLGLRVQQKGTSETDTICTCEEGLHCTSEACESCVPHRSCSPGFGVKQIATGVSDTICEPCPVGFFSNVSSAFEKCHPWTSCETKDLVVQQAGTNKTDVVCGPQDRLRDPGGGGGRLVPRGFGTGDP

[11] = biological target: T7, human CD40 (W109R) Fc fusion (Chimpanzee CD40) (human, UniProt P25942 21-193); experiment: SPR ProteOn XPR36;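 further: surface plasmon resonance with CD40-Fc fusions captured through their Fc on an anti-human IgG chip, sensorgrams reference-subtracted against surfaces lacking CD40-Fc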
T7 construct: As m1 with W109R (residue of chimpanzee CD40); also called hCD40-M3; not shown: human IgG1 Fc

[12] = biological target: T8, human CD40 (W109L, L121P) Fc fusion (human, UniProt P25942 21-193); experiment: SPR ProteOn XPR36;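 further: surface plasmon resonance with CD40-Fc fusions captured through their Fc on an anti-human IgG chip, sensorgrams reference-subtracted against surfaces lacking CD40-Fc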
T8 construct: As m1 with W109L and L121P; also called hCD40-M4; not shown: human IgG1 Fc

[13] = biological target: T9, wild type cynomolgus monkey CD40 Fc fusion (cynomolgus monkey; human); experiment: SPR ProteOn XPR36;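 further: surface plasmon resonance with CD40-Fc fusions captured through their Fc on an anti-human IgG chip, sensorgrams reference-subtracted against surfaces lacking CD40-Fc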
T9 construct: also called wt-cyno-CD40; wt-cCD40; not shown: human IgG1 Fc
T9 chain: T6 chain with A95S, S106L, H142R, L172Q

[14] = biological target: T10, human CD40 (W109L) Fc fusion (human, UniProt P25942 21-193); experiment: SPR ProteOn XPR36
T10 construct: As m1 with W109L; also called hCD40-M2; not shown: human IgG1 Fc

[15] = biological target: T11, human CD40 (W109L) Fc fusion (human, UniProt P25942 21-193); experiment: SPR, ProteOn XPR36; CD40-Fc captured, dAb analyte
T11 construct: Same construct as wt-hCD40 with W109L; also called hCD40-M2; hCD40 M2 (W109L); not shown: human IgG1 Fc

[16] = biological target: T12, human CD40 (H76R, W109L, L121P) Fc fusion (human); experiment: SPR, ProteOn XPR36; CD40-Fc captured, dAb analyte
T12 construct: Same construct as wt-hCD40 with H76R, W109L and L121P; also called hCD40-M5; hCD40-M5 (H76R, W109L, L121P); not shown: human IgG1 Fc
T12 chain: T6 chain

[17] = biological target: T13, human CD40 (W109R) Fc fusion (Chimpanzee CD40) (human, UniProt P25942 21-193); experiment: SPR, ProteOn XPR36; CD40-Fc captured, dAb analyte
T13 construct: Same construct as wt-hCD40 with W109R (the residue of chimpanzee CD40); also called hCD40-M3; hCD40 M3 (W109R); not shown: human IgG1 Fc

[18] = biological target: T14, wild type cynomolgus monkey CD40 Fc fusion (cynomolgus monkey (Macaca …)); experiment: SPR, ProteOn XPR36; CD40-Fc captured, dAb analyte
T14 construct: also called wt-cCD40; wt-cyno-CD40; not shown: human IgG1 Fc
T14 chain: T6 chain with A95S, S106L, H142R, L172Q

[19] = biological target: T15, human CD40 (W109L, L121P) Fc fusion (human, UniProt P25942 21-193); experiment: SPR, ProteOn XPR36; CD40-Fc captured, dAb analyte
T15 construct: Same construct as wt-hCD40 with W109L and L121P; also called hCD40-M4; hCD40 M4 (W109L, L121P); not shown: human IgG1 Fc

[20] = biological target: T16, wild type human CD40 Fc fusion (human, UniProt P25942 21-193); experiment: SPR, ProteOn XPR36; CD40-Fc captured, dAb analyte; 1:1 fit; repeat
T16 construct: also called wt-hCD40; not shown: human IgG1 Fc

[21] = biological target: T16, wild type human CD40 Fc fusion; experiment: SPR, ProteOn XPR36; CD40-Fc captured, dAb analyte; 1:1 fit;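 on Kd: CD40-Fc captured on anti-human IgG(Fc) surface of a GLC chip, buffer pH 7.1, sensorgrams double-referenced against surfaces without CD40-Fc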;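 on koff: CD40-Fc captured on anti-human IgG(Fc) surface of a GLC chip, buffer pH 7.1, sensorgrams double-referenced against surfaces without CD40-Fc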;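 on kon: CD40-Fc captured on anti-human IgG(Fc) surface of a GLC chip, buffer pH 7.1, sensorgrams double-referenced against surfaces without CD40-Fc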
[22] = biological target: T17, human CD40 (H76R) Fc fusion (human, UniProt P25942 21-193); experiment: as above
T17 construct: also called hCD40-M1; hCD40 M1 (H76R); not shown: human IgG1 Fc

B1: BMS3h38-2-biotin (other)
VH: EVQLLASGGGLVQPGGSLRLSCAASGFTFEEEEMIWVRQAPGKGLEWVSAISGSGGSTYYADSVKGRFTISRDNSKNTLYLQMNSLRAEDTAVYYCGKEPFRYDYWGQGTLVTVSS
modifications: biotin-conjugated; site not stated
notes: Biotin conjugate of dAb BMS3h-38-2; also called biotin-conjugated dAb
B1: binds [1]; no binding [2]; no binding [3]. B1: no binding [4].

B2: BMS3h38-2C-P40Br (other)
VH: B1 VH
modifications: PEGylated; attachment residue not stated
notes: PEGylated form of dAb BMS3h-38-2; also called PEGylated anti-human CD40 dAb
B2: no binding [5]; no binding [6]; no binding [7].

B3: BMS3h-38-2 (other)
VH: B1 VH
notes: domain antibody (dAb), single VH domain
B3 was tested, and the Kd [8] was 7.2 nM, the Kd [9] was 5.1 nM and 8 nM and the binding result [10] was “no binding (tested: 405 nM)”. B3: no binding (tested: 405 nM) [11]; no binding (tested: 405 nM) [12]; no binding (tested: 405 nM) [13]. B3: no binding (tested: 405 nM) [14].

B4: BMS3h-38-2 (other)
VH: B1 VH
notes: Anti-human CD40 domain antibody (dAb), single VH domain
B4: no binding (tested: dAb tested up to 405 nM) [15]; no binding (tested: dAb tested up to 405 nM) [16]; no binding (tested: dAb tested up to 405 nM) [17]. For the same binder, the binding result [18] was “no binding (tested: dAb tested up to 405 nM)”, the binding result [19] was “no binding (tested: dAb tested up to 405 nM)” and the Kd [20] was 8.04 nM. The koff [20] was 0.00114 s⁻¹, the kon [20] was 142000 M⁻¹ s⁻¹ and the Kd [21] was 5.07 nM. The koff [21] was 0.000608 s⁻¹, the kon [21] was 120000 M⁻¹ s⁻¹ and the Kd [22] was 7.15 nM. For the same binder, the koff [22] was 0.001 s⁻¹ and the kon [22] was 140000 M⁻¹ s⁻¹.

B5: BMS3h-56-5C-40L (other)
VH: EVQLLESGGGLVQPGGSLRLSCAASGFTFRDYEMWWVRQAPGKGLERVSAINPQGTRTYYADSVMGRFTISRDNSKNTLYLQMNSLRAEDTAVYYCAKLPFTFDDWGQGTLVTVSS
modifications: PEGylated; attachment residue not stated
notes: PEGylated form of dAb BMS3h-56-5; also called PEGylated anti-human CD40 dAb
B5: no binding [5]; no binding [6]; no binding [7].
